Data as given in the supplement of paper PMC10567573.

B1: ESR2 (parent)
chain: KSCQACRLRKCYEVGMVKCGSRRE
B2: FAM189A2 (parent)
chain: PRCDLVDLGEGKICFCCEEFQPAK
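Further: lentivirally expressed fusions sorted by FACS into six bins by GFP to DsRed ratio, PSI derived from sequencing read proportions per bin multiplied by bin number.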

Variants of: B1
Experiment: protein stability index of a GFP-peptide fusion (GPS, HEK-293T) (PSI 1-6); higher = more stable
Conditions: c terminus: a fixed tail appended
With KSCQACRLRKCYEVGMVKCGCRRE [S21C] the protein stability index was 3.46.
For KSCQACRLRKCYEVGMVKCGLRRE [S21L], the protein stability index was 2.44.
Work on KACQACRLRKCYEVGMVKCGSRRE [S2A] yielded a protein stability index of 1.6.
Work on KCCQACRLRKCYEVGMVKCGSRRE [S2C] yielded a protein stability index of 1.54.
Variant KSCQACRLRCCYEVGMVKCGSRRE [K10C] has a protein stability index of 1.5.
For KSCAACRLRKCYEVGMVKCGSRRE [Q4A], the protein stability index was 1.55.
In the case of KSCQACRLRKAYEVGMVKCGSRRE [C11A], the protein stability index is reported as 1.82.
With KSCQGCRLRKCYEVGMVKCGSRRE [A5G] the protein stability index was 1.84.
In the case of KSCQSCRLRKCYEVGMVKCGSRRE [A5S], the protein stability index is reported as 2.
Variant KSCQACRLRKCYEVGMVKTGSRRE [C19T] has a protein stability index of 2.81.
Variant KSCQACRERKCYEVGMVKCGSRRE [L8E] has a protein stability index of 2.47.
For KSCQACRWRKCYEVGMVKCGSRRE [L8W], the protein stability index was 1.87.
Work on KSCQACRLRKCYEVDMVKCGSRRE [G15D] yielded a protein stability index of 2.19.
With SSCQACRLRKCYEVGMVKCGSRRE [K1S] the protein stability index was 3.19.

Variants of: B2
Experiment: as above
Conditions: c terminus: a fixed tail appended
PRCDKVDLGEGKICFCCEEFQPAK [L5K] showed a protein stability index of 4.28.
Work on PRCDTVDLGEGKICFCCEEFQPAK [L5T] yielded a protein stability index of 3.47.
PRCDVVDLGEGKICFCCEEFQPAK [L5V] showed a protein stability index of 3.02.
PRCDQVDLGEGKICFCCEEFQPAK [L5Q] showed a protein stability index of 3.73.
PRCDRVDLGEGKICFCCEEFQPAK [L5R] gave a protein stability index of 2.98.
With PRCDMVDLGEGKICFCCEEFQPAK [L5M] the protein stability index was 2.86.
For PRCDLVDLGEQKICFCCEEFQPAK [G11Q], the protein stability index was 2.98.
In the case of PRCDLVDLGEPKICFCCEEFQPAK [G11P], the protein stability index is reported as 2.52.
In the case of PRCDLVDLGESKICFCCEEFQPAK [G11S], the protein stability index is reported as 2.8.
In the case of PRCDLVDLGEVKICFCCEEFQPAK [G11V], the protein stability index is reported as 1.05.
PRCDLVDLGEGKICFCCEEIQPAK [F20I] showed a protein stability index of 3.6.
In the case of PRCDLVDLGEGKICFCCEEAQPAK [F20A], the protein stability index is reported as 3.32.
For PRCDLVDLGEGKICFCCEEGQPAK [F20G], the protein stability index was 3.59.
With PRCDLVDLGEGKICFCCEEQQPAK [F20Q] the protein stability index was 2.59.
PRCDLVDLGEGKICFCCEETQPAK [F20T] showed a protein stability index of 3.97.
For PRCDLVDLGEGKICFCCEEWQPAK [F20W], the protein stability index was 2.4.
Work on PRCDLVDLGEGKICFCCEEFQYAK [P22Y] yielded a protein stability index of 3.06.
PRCDLVDLGEGKICFCCEEFQLAK [P22L] showed a protein stability index of 2.74.
For PRCDLVDLGEGKICFCCEEFQQAK [P22Q], the protein stability index was 3.51.
With PRCDLVDLGEGKICFCCEEFQKAK [P22K] the protein stability index was 3.42.
For PRCDLVDLGEGKICFCCEEFQNAK [P22N], the protein stability index was 3.28.
PRCDLVDLGEGKICFCCEEFQRAK [P22R] gave a protein stability index of 2.51.
Variant PRCDLVDLGEGKICFCCEEFQEAK [P22E] has a protein stability index of 3.49.
Variant PRCDLVDQGEGKICFCCEEFQPAK [L8Q] has a protein stability index of 4.32.
Variant PRCDLVDNGEGKICFCCEEFQPAK [L8N] has a protein stability index of 3.73.
PRCDLVDRGEGKICFCCEEFQPAK [L8R] gave a protein stability index of 3.91.
For PRCDLVDAGEGKICFCCEEFQPAK [L8A], the protein stability index was 3.54.
Variant PRCDLVDPGEGKICFCCEEFQPAK [L8P] has a protein stability index of 3.58.
For PRCDLVDWGEGKICFCCEEFQPAK [L8W], the protein stability index was 3.23.
For PRCDLVDCGEGKICFCCEEFQPAK [L8C], the protein stability index was 3.87.
Variant PRCDLVDLGEGKICFCCELFQPAK [E19L] has a protein stability index of 2.
PRCDLVDLGEGKICFCCEQFQPAK [E19Q] showed a protein stability index of 3.05.
With PRCDLVDLGEGKICFCCEGFQPAK [E19G] the protein stability index was 2.71.
In the case of PRCDLVDLGEGKICFCCEYFQPAK [E19Y], the protein stability index is reported as 2.03.
Variant PRCDLVDLGEGKICFCCEWFQPAK [E19W] has a protein stability index of 2.25.
PRCDLVDLGEGKICFCCEKFQPAK [E19K] showed a protein stability index of 2.09.
Work on PRCDLVDLGEGKICFCCENFQPAK [E19N] yielded a protein stability index of 3.21.
In the case of PRCDLVDLGEGKICFCCEVFQPAK [E19V], the protein stability index is reported as 1.65.
In the case of PRCDLVDLGEGKICFCCEFFQPAK [E19F], the protein stability index is reported as 1.78.
PRCDLVDLGEGKICFCCEAFQPAK [E19A] showed a protein stability index of 2.51.
For PRCDLVELGEGKICFCCEEFQPAK [D7E], the protein stability index was 3.05.
Work on PRCDLVWLGEGKICFCCEEFQPAK [D7W] yielded a protein stability index of 2.24.
PRCDLVHLGEGKICFCCEEFQPAK [D7H] gave a protein stability index of 3.25.
In the case of PRCDLVMLGEGKICFCCEEFQPAK [D7M], the protein stability index is reported as 1.93.
PRCDLVTLGEGKICFCCEEFQPAK [D7T] gave a protein stability index of 2.79.
Variant PRCDLVRLGEGKICFCCEEFQPAK [D7R] has a protein stability index of 2.6.
PRCDLVILGEGKICFCCEEFQPAK [D7I] gave a protein stability index of 1.71.
PICDLVDLGEGKICFCCEEFQPAK [R2I] gave a protein stability index of 2.83.
PKCDLVDLGEGKICFCCEEFQPAK [R2K] gave a protein stability index of 2.46.
For PYCDLVDLGEGKICFCCEEFQPAK [R2Y], the protein stability index was 2.25.
Work on PHCDLVDLGEGKICFCCEEFQPAK [R2H] yielded a protein stability index of 2.58.
PTCDLVDLGEGKICFCCEEFQPAK [R2T] showed a protein stability index of 2.94.
In the case of PQCDLVDLGEGKICFCCEEFQPAK [R2Q], the protein stability index is reported as 3.13.
PLCDLVDLGEGKICFCCEEFQPAK [R2L] gave a protein stability index of 2.8.
In the case of PRCDLVDLGEGKICFCCSEFQPAK [E18S], the protein stability index is reported as 2.55.
Variant PRCDLVDLGEGKICFCCMEFQPAK [E18M] has a protein stability index of 2.07.
PRCDLVDLGEGKICFCCNEFQPAK [E18N] gave a protein stability index of 2.78.
PRCDLVDLGEGKICFCCWEFQPAK [E18W] showed a protein stability index of 2.01.
Work on PRCDLVDLGEGKICFCCQEFQPAK [E18Q] yielded a protein stability index of 2.64.
In the case of PRCDLVDLGEGKICFCCDEFQPAK [E18D], the protein stability index is reported as 2.56.
With PRCDLVDLGEGKICFCCKEFQPAK [E18K] the protein stability index was 2.77.
IRCDLVDLGEGKICFCCEEFQPAK [P1I] gave a protein stability index of 1.78.
For TRCDLVDLGEGKICFCCEEFQPAK [P1T], the protein stability index was 2.63.
Work on YRCDLVDLGEGKICFCCEEFQPAK [P1Y] yielded a protein stability index of 1.91.
DRCDLVDLGEGKICFCCEEFQPAK [P1D] gave a protein stability index of 2.67.
VRCDLVDLGEGKICFCCEEFQPAK [P1V] gave a protein stability index of 1.87.
HRCDLVDLGEGKICFCCEEFQPAK [P1H] showed a protein stability index of 4.03.
PRCDLVDLGEGKICFSCEEFQPAK [C16S] showed a protein stability index of 3.28.
With PRCDLVDLGEGKICFGCEEFQPAK [C16G] the protein stability index was 3.44.
With PRCDLVDLGEGKICFVCEEFQPAK [C16V] the protein stability index was 2.85.
Variant PRCDLVDLGEGKICFMCEEFQPAK [C16M] has a protein stability index of 3.07.
For PRCDLVDLGEGKICFHCEEFQPAK [C16H], the protein stability index was 4.23.
Work on PRCDLVDLGEGKICFRCEEFQPAK [C16R] yielded a protein stability index of 3.13.
With PRCDLVDLGEGKICFQCEEFQPAK [C16Q] the protein stability index was 3.89.
Variant PRCDLVDLGEGKICFICEEFQPAK [C16I] has a protein stability index of 2.09.
For PRCDLVDLHEGKICFCCEEFQPAK [G9H], the protein stability index was 3.06.
With PRCDLVDLQEGKICFCCEEFQPAK [G9Q] the protein stability index was 2.33.
PRCDLVDLLEGKICFCCEEFQPAK [G9L] gave a protein stability index of 2.21.
In the case of PRCDLVDLMEGKICFCCEEFQPAK [G9M], the protein stability index is reported as 2.04.
With PRCDLVDLSEGKICFCCEEFQPAK [G9S] the protein stability index was 2.77.
